B1: ARHGEF6: Rho guanine nucleotide exchange factor 6 (protein, UniProt Q15052 1-776, looked up)
Rho guanine nucleotide …: MNPEEQIVTWLISLGVLESPKKTICDPEEFLKSSLKNGVVLCKLINRLMPGSVEKFCLDPQTEADCINNINDFLKGCATLQVEIFDPDDLYSGVNFSKVLSTLLAVNKATEDQLSERPCGRSSSLSAANTSQTNPQGAVSSTVSGLQRQSKTVEMTENGSHQLIVKARFNFKQTNEDELSVCKGDIIYVTRVEEGGWWEGTLNGRTGWFPSNYVREIKSSERPLSPKAVKGFETAPLTKNYYTVVLQNILDTEKEYAKELQSLLVTYLRPLQSNNNLSTVEVTSLLGNFEEVCTFQQTLCQALEECSKFPENQHKVGGCLLSLMPHFKSMYLAYCANHPSAVNVLTQHSDELEQFMENQGASSPGILILTTNLSKPFMRLEKYVTLLQELERHMEDTHPDHQDILKAIVAFKTLMGQCQDLRKRKQLELQILSEPIQAWEGEDIKNLGNVIFMSQVMVQYGACEEKEERYLMLFSNVLIMLSASPRMSGFIYQGKIPIAGTVVTRLDEIEGNDCTFEITGNTVERIVVHCNNNQDFQEWLEQLNRLIRGPASCSSLSKTSSSSCSAHSSFSSTGQPRGPLEPPQIIKPWSLSCLRPAPPLRPSAALGYKERMSYILKESSKSPKTMKKFLHKRKTERKPSEEEYVIRKSTAALEEDAQILKVIEAYCTSANFQQGHGSSTRKDSIPQVLLPEEEKLIIEETRSNGQTIMEEKSLVDTVYALKDEVRELKQENKRMKQCLEEELKSRRDLEKLVRRLLKQTDECIRGESSSKTSILP
B2: PTPRCAP: Protein tyrosine phosphatase receptor type C-associated protein (protein, UniProt Q14761 1-206, looked up)
Protein tyrosine phosphatase …: MALPCTLGLGMLLALPGALGSGGSAEDSVGSSSVTVVLLLLLLLLLATGLALAWRRLSRDSGGYYHPARLGAALWGRTRRLLWASPPGRWLQARAELGSTDNDLERQEDEQDTDYDHVADGGLQADPGEGEQQCGEASSPEQVPVRAEEARDSDTEGDLVLGSPGPASAGGSAEALLSDLHAFAGSAAWDDSARAAGGQGLHVTAL
B3: Microtubule-associated protein 4: full-length endogenous prey, gene MAP4 (protein, UniProt P27816 1-1152, looked up)
chain: MADLSLADALTEPSPDIEGEIKRDFIATLEAEAFDDVVGETVGKTDYIPLLDVDEKTGNSESKKKPCSETSQIEDTPSSKPTLLANGGHGVEGSDTTGSPTEFLEEKMAYQEYPNSQNWPEDTNFCFQPEQVVDPIQTDPFKMYHDDDLADLVFPSSATADTSIFAGQNDPLKDSYGMSPCNTAVVPQGWSVEALNSPHSESFVSPEAVAEPPQPTAVPLELAKEIEMASEERPPAQALEIMMGLKTTDMAPSKETEMALAKDMALATKTEVALAKDMESPTKLDVTLAKDMQPSMESDMALVKDMELPTEKEVALVKDVRWPTETDVSSAKNVVLPTETEVAPAKDVTLLKETERASPIKMDLAPSKDMGPPKENKKETERASPIKMDLAPSKDMGPPKENKIVPAKDLVLLSEIEVAQANDIISSTEISSAEKVALSSETEVALARDMTLPPETNVILTKDKALPLEAEVAPVKDMAQLPETEIAPAKDVAPSTVKEVGLLKDMSPLSETEMALGKDVTPPPETEVVLIKNVCLPPEMEVALTEDQVPALKTEAPLAKDGVLTLANNVTPAKDVPPLSETEATPVPIKDMEIAQTQKGISEDSHLESLQDVGQSAAPTFMISPETVTGTGKKCSLPAEEDSVLEKLGERKPCNSQPSELSSETSGIARPEEGRPVVSGTGNDITTPPNKELPPSPEKKTKPLATTQPAKTSTSKAKTQPTSLPKQPAPTTIGGLNKKPMSLASGLVPAAPPKRPAVASARPSILPSKDVKPKPIADAKAPEKRASPSKPASAPASRSGSKSTQTVAKTTTAAAVASTGPSSRSPSTLLPKKPTAIKTEGKPAEVKKMTAKSVPADLSRPKSTSTSSMKKTTTLSGTAPAAGVVPSRVKATPMPSRPSTTPFIDKKPTSAKPSSTTPRLSRLATNTSAPDLKNVRSKVGSTENIKHQPGGGRAKVEKKTEAAATTRKPESNAVTKTAGPIASAQKQPAGKVQIVSKKVSYSHIQSKCGSKDNIKHVPGGGNVQIQNKKVDISKVSSKCGSKANIKHKPGGGDVKIESQKLNFKEKAQAKVGSLDNVGHLPAGGAVKTEGGGSEAPLCPGPPAGEEPAISEAAPEAGAPTSASGLNGHPTLSGGGDQREAQTLDSQIQETSI
modifications: full-length
notes: full-length endogenous prey, gene MAP4

Columns and labels:
[1] = test system: SNX27_PDZ; test: nHU-MS, SNX27_PDZ bait, total Jurkat extracts, series 1; assay type: binding, human; settings: Jurkat, series 1; for BI_HU / FC_HU (log2 fold change) / Ratio_HU: n = 6; for pKapp_significant_binders_HU: apparent, Eq. 2, significant binders (1 σ, P < 0.05)
Protocol: The empty His6-AviTag-MBP-TEV vector was used to produce biotinylated MBP for control experiments. Proteins were coexpressed with BirA biotin ligase (PET21a-BirA, Addgene, no. 20857) in Escherichia coli BL21(DE3) cells. At isopropyl-β-D-thiogalactopyranoside (IPTG) induction (1 mM IPTG at 18°C overnight), 50 μM biotin was added to the media. Harvested cells were lysed in a buffer containing 50 mM tris (pH 7.5), 150 to 300 mM NaCl, 50 μM biotin, 2 mM β-mercaptoethanol, cOmplete EDTA-free protease inhibitor cocktail (Roche, Basel, Switzerland), 1% Triton X-100, and trace amount of deoxyribonuclease, ribonuclease, and lysozyme. Lysates were frozen at −20°C before further purification steps. Lysates were sonicated and centrifuged for clarification. Expressed proteins were captured on in-house prepacked Ni-IDA (Protino Ni-IDA Resin, Macherey-Nagel, Duren, Germany) columns and were washed with at least 10 column volumes of cold wash buffer [50 mM tris (pH 7.5), 150 mM NaCl, and 2 mM β-mercaptoethanol] before elution with 250 mM imidazole. The Ni elution was collected directly on a preequilibrated amylose column (amylose high flow resin, New England Biolabs, Ipswich, MA). Amylose column was washed with 5 column volumes of cold wash buffer before fractionated elution in a buffer containing 25 mM Hepes (pH 7.5), 150 mM NaCl, 1 mM TCEP, 10% glycerol, 5 mM maltose, and cOmplete EDTA-free protease inhibitor cocktail. The concentration of proteins was determined by their ultraviolet absorption at 280 nm before aliquots were snap-frozen in liquid nitrogen and stored at −80°C.
For saturating streptavidin resin with biotinylated peptides or biotin, 50 μl of streptavidin resin was mixed with biotin or peptide at 40 to 60 μM concentration in 6 to 6.5 resin volume for 60 min. To saturate streptavidin resin with biotinylated proteins, 50 μl of streptavidin resin (Streptavidin Sepharose High Performance, Cytiva) was mixed with biotinylated MBP or MBP-PDZ at 40 to 50 μM concentration in 20× resin volume for 60 min. After saturation, resins were washed a single time [10 resin volume, holdup buffer: 50 mM tris (pH 7.5), 300 mM NaCl, and 1 mM TCEP, 0.22-μm filtered] and were depleted with biotin (10 resin volume, 10 min, holdup buffer supplemented with 100 μM biotin). Last, resins were washed two times (10 resin volume, holdup buffer).
For single-point nHU experiments carried out at ~10 μM bait concentration, 50 μl of saturated streptavidin resin was mixed with 200 μl of cell lysate (2 mg/ml). Titration experiments were carried out by mixing control and bait-saturated resin and keeping the total resin volume constant; e.g., ~5 μM bait concentration can be achieved by mixing 25 μl of bait-saturated streptavidin resin with 25 μl of control resin and 200 μl of cell lysate (2 mg/ml). Control and bait-saturated resins were prepared in larger amounts, and a serial dilution was prepared with these presaturated resins to achieve different resin ratios.
Unless specified elswhere, the nHU mixture was incubated at 4°C for 2 hours. After the incubation ended, the resin was separated from the supernatant by a brief centrifugation (15 s, 2000 g). Then, half of the supernatant was removed by pipetting without any delay to avoid any resin contamination; e.g., 100 μl of supernatant is collected if 200 μl of cell lysate was used as analyte. Alternatively, the supernatant can be centrifuged an additional time to clarify it further, removing any possible resin contamination. In principle, the separation of the supernatant should be as fast as possible since any delay can perturb the equilibrium. […] Alternatively, the resin can be separated from the supernatant using filter plates (e.g., various products of Millipore, Burlington, MA) or spin columns (e.g., Pierce spin cups—cellulose acetate filter from Thermo Fisher Scientific, Waltham, MA) to achieve faster separation. […]

[2] = test system: SNX27_PDZ; test: AP-MS control pull-down on leftover resin, SNX27_PDZ bait, total Jurkat extracts; assay type: binding, human; settings: Jurkat, series 1; leftover resin; n = 6
Protocol: Leftover beads from nHU-MS experiments were washed three times immediately after the separation of the supernatant [10 resin volume in buffer containing 50 mM tris (pH 8.5), 150 mM NaCl, 1% Triton X-100, 10× cOmplete EDTA-free protease inhibitor cocktail, 2 mM EDTA, and 1 mM TCEP]. Then, the beads were washed two times [10 resin volume buffer containing 50 mM tris (pH 8.5), 150 mM NaCl, and 1 mM TCEP]. Last, captured protein was eluted from the resin in two steps, and the eluted fractions were pooled. For each elution, the beads were incubated for 30 min with three resin volume buffer containing 20 mM tris (pH 8.5), 100 mM NaCl, 500 μM TCEP, and 8 M urea. Between each step, the beads were separated by mild centrifugation, and the supernatant was removed by gentle pipetting.
The nHU samples were precipitated with trichloroacetic acid (TCA) 20% overnight at 4°C and centrifuged at 14,000 rpm for 10 min at 4°C. The protein pellets were washed twice with 1 ml of cold acetone and air-dried. The protein extracts were solubilized in 8 M urea, reduced with 5 mM TCEP for 30 min, and alkylated with 10 mM iodoacetamide for 30 min in the dark. Double digestion was performed at 37°C with 500 ng of endoproteinase Lys-C (Wako, Richmond, USA) for 4 hours, followed by fourfold dilution and an overnight digestion with 500 ng of trypsin (Promega, Charbonnieres les Bains, France). Peptide mixtures were then desalted on a C18 spin-column and dried on a speed vacuum.
Samples were analyzed using an Ultimate 3000 nano-RSLC coupled in line via a nano-electrospray ionization source, with an LTQ-Orbitrap ELITE mass spectrometer (Thermo Fisher Scientific, San Jose, CA) or with the Orbitrap Exploris 480 mass spectrometer (Thermo Fisher Scientific, Bremen, Germany) equipped with a high field asymmetric ion mobility spectrometry (FAIMS) module. Peptide mixtures were injected in 0.1% trifluoroacetic acid on a C18 Acclaim PepMap100 trap column [75 μm inner diameter (ID) × 2 cm, 3 μm, 100 Å, Thermo Fisher Scientific] for 3 min at 5 μl/min with 2% acetonitrile (ACN) and 0.1% formic acid (FA) in H2O and then separated on a C18 Acclaim PepMap100 nano-column (75 μm ID × 50 cm, 2.6 μm, 150 Å, Thermo Fisher Scientific) at 300 nl/min and 40°C with a 90-min linear gradient from 5 to 30% buffer B (A: 0.1% FA in H2O/B: 80% ACN, 0.1% FA in H2O) and regeneration at 5% B. Spray voltage was set to 2.1 kV and heated capillary temperature was set to 280°C.
For the Orbitrap Elite, the mass spectrometer was operated in positive ionization mode in data-dependent mode with survey scans from mass/charge ratio (m/z) 350 to 1500 acquired in the Orbitrap at a resolution of 120,000 at m/z 400. The 20 most intense peaks from survey scans were selected for further fragmentation in the linear ion trap with an isolation window of 2.0 Da and were fragmented by collision-induced dissociation (CID) with a normalized collision energy of 35% (TOP 20 CID method). Unassigned and single-charged states were excluded from fragmentation. The ion target value for the survey scans (in the Orbitrap) and the MS2 mode (in the linear ion trap) were set to 1E6 and 5E3, respectively, and the maximum injection time was set to 100 ms for both scan modes. Dynamic exclusion was set to 20 s after one repeat count with mass width at ±10 parts per million (ppm).
Proteins were identified by database search using SequestHT (Thermo Fisher Scientific) with Proteome Discoverer 2.4 software (PD2.4, Thermo Fisher Scientific) on the human FASTA database downloaded from UniProt (reviewed, release 2021_06_03, 20380 entries, https://uniprot.org/, complemented with sequences of likely contaminants, such as MBP, streptavidin, or trypsin). Precursor and fragment mass tolerances were set at 7 ppm and 0.6 Da, respectively, and up to two missed cleavages were allowed. […]

Molecule	BI_HU [1]	FC_HU (log2 fold change) [1]	Ratio_HU [1]	pKapp_significant_binders_HU [1]	FC_AP (log2 fold change) [2]	Ratio_AP [2]
B1	0.3284	-0.5743	0.6716	4.691	5.099	34.2811
B2	0.3458	-0.6123	0.6542	4.725	0.5179	1.432
B3	0.2772	-0.4683	0.7228	4.5849	7.799	222.732
